From the nanobody polyreactivity screen of Harvey et al. (2022)

Test: yeast display, Sf9 membrane polyspecificity reagent, FACS + sequencing; frameworks hold sequencing errors
Method in brief: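 Nanobodies from a synthetic yeast display library (Saccharomyces cerevisiae BJ5465), induced 36–48 hours with galactose, were stained 1 hour at 4 °C with 10% biotinylated, detergent-solubilized Sf9 membrane reagent, enriched on streptavidin microbeads, then FACS-sorted. Anti-HA (expression) and streptavidin (reagent binding) fluorescence set low and high (top ~1%) gates. Polyreactivity labels come from the gate of origin. Genes were colony-PCR amplified, MiSeq 2 × 250 sequenced and filtered by CDR length.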

Row | Sequence | polyreactivity (PSR sort gate)
1 | QVQLVESGGGLVQAGGSLRLSCAAYGRIIYLNAMGWYRQAPGKERELVATISSSGGTTNYADSVKGRFTISRDNAKNTVYLQMNSLKPEDTAVYYCAAKFVGTTVSEYGYWGQGTQVTVSS | low polyreactivity
2 | QVQLVESGGGLVQAGGSLRLSCAASGSTFGRNAMGWYRQAPGKERELVAGITRRGGSTYYADSVKGRFTISRDNAKNTVYLQMNSLKPEDTAVYYCNTRGQSSSGIYDYWGQGTQVTVSS | high polyreactivity
3 | QVQLVESGGGLVQAGGSLRLSCAASGFTFSGNTMGWSRQAPGKERELVATISRTGGITYYADSVKGRFTISRDNAKNTVYLQMNSLKPEDTAVYYCNRRYYYFVYPDDYWGQGTQVTVSS | high polyreactivity
4 | QVQLVESGGGLVQAGGSLRLSCAASGFIFATYTMGWYRQAPGKERKLVAAITWRGGSTYYADSVKGRFTISRDNAKNSVYLQMNSLKPEDTAVYYCAAQDVYSYRYVEDDYWGQGTQVTVSS | low polyreactivity
5 | QVQRVESGGGLVQAGGSLRLSCAASGRIFRYNAMGWYRQAPGKERELVAAISGTADRTYYADSVKGRFTNSRDNAKNTVYLQMNSLKPEDTAVYYCAVAYSYRYYYWGQGTQVTVSS | high polyreactivity
6 | QVQLVESGGGLVQAGGSHRLSCAASGRIIHGYAMGWYRQAPGKERELVARISFSGGRTYYADSVKGRFTISRDNAKNTVYLQKNSLIPEDTAVYYCNVRVWSYYYPGRDSDYWGQGTQVTVSS | high polyreactivity
7 | QVQLVESGGGLVHAGCSLRLSCAASGFFFDYNAMGWYRQAPGKERELVAAISISGGGTYYADSVKGRFTISRDNAKNTVYLQKNSLKPEDTAVYYCAAAGIGGGGWGQGTQVTVSS | low polyreactivity
8 | QVKLVESGRGLVQAGGSLRLSCAASGRIFTNNAMGRYRPATGKERELVAAINVSGGRTYYADSVKGRFTISRENAKNTVYLQMISLKPDDTAVYYCNKVKETYMDYWGQGTQVTVSS | high polyreactivity
9 | QVQLVESGGGLVQAGGSLRLSCAASGSTFYDYAMGWYRQAPGKERELVAAISQSGGSTYYADSVKGRFTISRDNAKNTVYLQMNSLKPEDTAVYYCAADSGYSLYDYWGQCTQVTVSS | low polyreactivity
10 | QLQLVESGRGLVQAGGSLRISCDASGSTFRRNAMGWYRPAPGKERELVAAITRGGGSTYYADSVKGRLTISRDNAKNTVYLQMNSLKPDDTAVYYCAAQISATRETMDYWGQGTQVTVSS | high polyreactivity
11 | QVQLVESGGGLVQAGGSLRLTCAASGITFLHYAMGWYRQAPGKERELVATISRRGGSTYYADSVKGRFTNSRDNAKYTVYLQLNSLKPEDTAVYYCAADSYYLRHYSAGYYFKRYYWGQGTQVTVSS | high polyreactivity
12 | QVQLVESGGGLVQAGRSLRLSCASSGSTIVNYAMGWYRQAPGKEMELVAAISRSGGRTYYADSVKGRFTISRDNAKNTVYLQMNSLKPEDTAVYYCARLLLSPEYGYWGQGTQVTVSS | high polyreactivity
13 | QVQLVESGGGIVHEGGSLRLSCAASGSIFFGYAMGWYRLAPGKELELVAAISASGGLTFYADSLKGRFTISRDNAKNTVYLQMNSLKPEDPAVYYCAKRGRSTYGYDYWGQGTQVTVSS | high polyreactivity
14 | QVQLVESGGGLVQAGGSLRLSCAASGRIFLVYAMGGSRQAPGKDRELVAAISWSTGSTYYADSVKGRFTISRDNAKNTVYLQMNSLKPEDTAVYYCAAEPELDEYEHDYWGQGTQVTVSS | low polyreactivity
15 | QVQLVESGGGLVQAGGSLRLSCAASGSTFTIYDMGWSRQAPGKERELVASISQGAGSTYYADSVKGRFTISRDNAKNTVYLQMNSQKPEDTAVYYCAADWYQSYVFVYWEGEYWAQGTQVTVSS | high polyreactivity
16 | QVQLVESGGGLVQAGGSLRLSCAASGSNISDNEMGWYRPAPGKESELVAAINWGGTNTYYADSVKGRYTISRDNAKNTVYLQINRLKPEDTAVYYCNADIPRRPIRHYLYDYWGQGTQVTVSS | low polyreactivity

Row | Sequence | polyreactivity (PSR sort gate)
17 | QGQLVESGGGLVQAGGRLSLSCAASGFTFDNYAMGWYSQAPGKERELVAAITSGGSTNYADSVKGRFTISRDNAKNTVYLQMNSLKPEDTAVYYCNVERSIQAQVNAEYYYWGQGTQVSVSS | low polyreactivity
18 | QVQLGESGGGLVQAVGSLRLSCAASGITFGENAMGWSRQADGKERELVAAITSGGSTDYADSVKGRFTISRDNAKNSVYLQMYCLKPEDTAVYYWAAEAVAYYGSSYGYWGQGTQVTVSS | low polyreactivity
19 | QVQLVETGGGLVQAGGSLRLSCAASGSTMAYYTMGWYRQEPGKEREFVASINWGGTTTYYADSVKGRFTISRDNAKNTVYLQMNSLKPEDTAVYYCAALGLRWGRSGYYYEYYYWGQGTQVTVSS | high polyreactivity
20 | QVQLVESGGGLVQAGGSLRLSCAASGRIFGGNAMGWYRQAPGKERELVAAITWGGSTNYADSVKGRFTISRDNAKNTVYLQMNRLKPEDTAVYYCNADPVRDTYWHPETQQWYGYWGQGTQVTVSS | low polyreactivity
21 | QVQLVESGLGLVQAGVSLRLSCAATGLTFVYYAMGWYRPAHGKERELVAAIDWSGGTTYYADSVKGRFTISRDHAKNTVYLQMNSLKPEDTAVYYCAADVVEEDDLEFYYWGQGTQVTVSS | high polyreactivity
22 | QVQLVESGGGLVQAGGSLRLSCAASGITIVNYVMGWYRQAPGKERELVAAISIGGGTYYADSVKGRFTISRDNAKNTVYLQMNSLKPEDTAVYYCNARSEVSYWWGGYWGQGTQVTVSS | low polyreactivity
23 | QVQLVESGGGLVQAGGSLRLSCAASGRTFPRNAMGWSRQAPGKERELVAAISSTGDSTYYADSVKGRFTISRDNAKNTVYLQMNSLKPEDTAVYYCHYPYDYWGKGTQVTVSS | low polyreactivity
24 | QVQLVESGAGLVQAGGSLRLSCAASGSTLVGNTMGWYRQSPGKERELVAAITGVGSTNYADSVKGRFTISRDNAKNTVYLQMNSLKPEDTAVYYCAVDGRSVQARWPRFDYWGQGTQVTVSS | low polyreactivity
25 | QVQLVESGGGLVQAGGSLRLSCAASGRIFANYAMGWYRQAPGKERELVAAIYWSDDDTYYADSVKGRFTISRDNAKNTVYFQMNRLIPEDTAVYYCAADGRYGWYYGVYNGEDYWGQGTQVTVSS | high polyreactivity
26 | QVQLVESGGGLVQAGGSLRLSCAASGSTFQINAMGWYRQAPGKERELVAAIDGGGDTYYADSVKGRFTISRDNAKNTVYLQMNTLKPEDTAVYYCAAERRIYYQDFNYWGQGTQVTVSS | low polyreactivity
27 | QVHIVESGGGLVQAGGSLRLSCAASGFTFFSNAMGWYRQAPGKQRELVASISASGSGTYYAVSVKGRFTISRDNAKNTFYLQMNSLKPDDTAVYYCSTRVGKILTTKYGYWGQGTQVSVSS | high polyreactivity
28 | QVQLGESGGGLVQAGGSLRLSCAASGFTFPVYAMGWYRQAPGKERELVAAISTSAGSTYYADSVKGRFTISRDNAKNTVYLQMNSLKPEDTAVYYCAARRRAFGSTYNYWGQGTQVTVSS | high polyreactivity
29 | QVHLVESGGGLVQAGGSLRLSCDASGSTFGYYAMGWYRQAPGKERELVAAISWNGVSTYYADSVKGRFTISRDNAKNTVYLQMNCLKPEDTAVYYCATVGLRRLFVNPGTLMDYWGEGTQVTVSS | low polyreactivity
30 | QVQLVESGGGLVQAGRSLRLSCAASGRIIYGYPMGWYRQAPGIERELVAAITATYYADSVKGRFTISRDNAKNTVYLQMNSLKPEDTAVYYCNAYLSPKQPLSPPDPTFEGGYWGQGTQVTVST | low polyreactivity
31 | QVQLVESGGGLAQAGGSLRLSCAASGRTFRTYTMGWYRQAPGKERELVAAISWSGSSTYYADSVKGRFTISRDNAKNTVYLQMNSLKPEDTAVYYCAARGLYDYGYWGQGTQVTVSS | high polyreactivity
32 | QVQLVESGGGLVQAGGSLRLSCAASGRIFTGNAMGWSRQAPGKERELVAAISASGSSSYYADSVKGRFTISRDNAKNTVYLQMNSLNPEDTAVYYCAAEGWYCYYYWGQGTQVTVSS | high polyreactivity
